The text below walks through data of patent US20050118674A1, “Engineering of Controlled Deamidation Rates in Peptides, Proteins, and Similar Structures” (priority 2003, published 2005).

Where no end group is shown, it is not given here.

The nature of one series: First-order nonenzymatic deamidation of pentapeptides in Tris buffer. The class given is physicochemical. The following applies: pH 7.4, 37.0° C., 0.15 M Tris HCl; Asn pentapeptides. Put shortly: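 Pentapeptides containing Asn or Gln in varied flanking sequences incubated at 37° C., pH 7.4, 0.15 M Tris buffer; first-order deamidation rates measured. Some Asn values estimated from remaining data; many Gln values derived from surface fitting rather than measured.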
Turning to “GlyGlyAsnGlyGly (GGNGG; printed: GlyGlyAsnGlyGly)”, the “First-Order Deamidation Halftimes of GlyXxxAsnYyyGly” value amounted to 1.03 days.

Turning to “GlyGluAsnHisGly (GENHG; printed: GlyGluAsnHisGly)”, the “First-Order Deamidation Halftimes of GlyXxxAsnYyyGly” value turned out to be 9.0 days.

In the case of “GlyProAsnArgGly (GPNRG; printed: GlyProAsnArgGly)”, the “First-Order Deamidation Halftimes of GlyXxxAsnYyyGly” value is reported as 72.9 days.

With “GlyArgAsnAspGly (GRNDG; printed: GlyArgAsnAspGly)”, the “First-Order Deamidation Halftimes of GlyXxxAsnYyyGly” value worked out at 34.7 days.

In the case of “GlyHisAsnIleGly (GHNIG; printed: GlyHisAsnIleGly)”, the “First-Order Deamidation Halftimes of GlyXxxAsnYyyGly” value is listed as 327 days.

Take “GlyMetAsnThrGly (GMNTG; printed: GlyMetAsnThrGly)”: the “First-Order Deamidation Halftimes of GlyXxxAsnYyyGly” value was 43.6 days.

With “GlyArgAsnLysGly (GRNKG; printed: GlyArgAsnLysGly)”, the “First-Order Deamidation Halftimes of GlyXxxAsnYyyGly” value worked out at 49.6 days.

With “GlyArgAsnMetGly (GRNMG; printed: GlyArgAsnMetGly)”, the “First-Order Deamidation Halftimes of GlyXxxAsnYyyGly” value worked out at 74.4 days.

With “GlyAmCysAsnThrGly (CNTG; not fully specified (N-terminus); printed as GlyAmCysAsnThrGly)”, the “First-Order Deamidation Halftimes of GlyXxxAsnYyyGly” value was 41.7 days.

Regarding “GlyAlaAsnLeuGly (GANLG; printed: GlyAlaAsnLeuGly)”, the “First-Order Deamidation Halftimes of GlyXxxAsnYyyGly” value came out at 124 days.

In the case of “GlyTyrAsnPheGly (GYNFG; printed: GlyTyrAsnPheGly)”, the “First-Order Deamidation Halftimes of GlyXxxAsnYyyGly” value came out at 58.0 days.

On to “GlyAspAsnCysGly (GDNCG; printed: GlyAspAsnCysGly)”, for which the “First-Order Deamidation Halftimes of GlyXxxAsnYyyGly” value is given as 54.1 days.

Consider “GlyProAsnTyrGly (GPNYG; printed: GlyProAsnTyrGly)”, for which the “First-Order Deamidation Halftimes of GlyXxxAsnYyyGly” value worked out at 114 days.

Consider “GlyGluAsnThrGly (GENTG; printed: GlyGluAsnThrGly)”, for which the “First-Order Deamidation Halftimes of GlyXxxAsnYyyGly” value was 36.8 days.

For the substance “GlyLeuAsnLeuGly (GLNLG; printed: GlyLeuAsnLeuGly)”, the “First-Order Deamidation Halftimes of GlyXxxAsnYyyGly” value amounted to 155 days.

In the case of “GlyAmCysAsnSerGly (CNSG; not fully specified (N-terminus); printed as GlyAmCysAsnSerGly)”, the “First-Order Deamidation Halftimes of GlyXxxAsnYyyGly” value amounted to 15.4 days.

For “GlyHisAsnProGly (GHNPG; printed: GlyHisAsnProGly)”, the “First-Order Deamidation Halftimes of GlyXxxAsnYyyGly” value is given as 8440 days.

Turning to “GlyArgAsnAlaGly (GRNAG; printed: GlyArgAsnAlaGly)”, the “First-Order Deamidation Halftimes of GlyXxxAsnYyyGly” value was determined as 24.4 days.

Consider “GlyPheAsnIleGly (GFNIG; printed: GlyPheAsnIleGly)”, for which the “First-Order Deamidation Halftimes of GlyXxxAsnYyyGly” value is 287 days.

The series is the same for the next values; noted with them: pH 7.4, 37.0 ° C., 0.15 M Tris HCl; Gln pentapeptides; 52 values measured, rest derived from surface fitting.
With “GlyLeuGlnLeuGly (GLQLG; printed: GlyLeuGlnLeuGly)”, the “First-Order Deamidation Halftimes of GlyXxxGlnYyyGly” value came to 6300 days.

For the substance “GlyMetGlnTrpGly (GMQWG; printed: GlyMetGlnTrpGly)”, the “First-Order Deamidation Halftimes of GlyXxxGlnYyyGly” value amounted to 9400 days.

With “GlyHisGlnTrpGly (GHQWG; printed: GlyHisGlnTrpGly)”, the “First-Order Deamidation Halftimes of GlyXxxGlnYyyGly” value is reported as 18000 days.

With “GlyArgGlnPheGly (GRQFG; printed: GlyArgGlnPheGly)”, the “First-Order Deamidation Halftimes of GlyXxxGlnYyyGly” value came to 7100 days.

For “GlySerGlnGluGly (GSQEG; printed: GlySerGlnGluGly)”, the “First-Order Deamidation Halftimes of GlyXxxGlnYyyGly” value stood at 8100 days.

With “GlySerGlnValGly (GSQVG; printed: GlySerGlnValGly)”, the “First-Order Deamidation Halftimes of GlyXxxGlnYyyGly” value was found to be 6800 days.

Consider “GlyHisGlnIleGly (GHQIG; printed: GlyHisGlnIleGly)”, for which the “First-Order Deamidation Halftimes of GlyXxxGlnYyyGly” value amounted to 6700 days.

Regarding “GlyValGlnLeuGly (GVQLG; printed: GlyValGlnLeuGly)”, the “First-Order Deamidation Halftimes of GlyXxxGlnYyyGly” value turned out to be 5500 days.

Turning to “GlyCysGlnSerGly (GCQSG; printed: GlyCysGlnSerGly)”, the “First-Order Deamidation Halftimes of GlyXxxGlnYyyGly” value is reported as 3800 days.

With “GlyGluGlnGluGly (GEQEG; printed: GlyGluGlnGluGly)”, the “First-Order Deamidation Halftimes of GlyXxxGlnYyyGly” value is 8200 days.

With “GlyArgGlnAspGly (GRQDG; printed: GlyArgGlnAspGly)”, the “First-Order Deamidation Halftimes of GlyXxxGlnYyyGly” value is listed as 5900 days.

With “GlyTyrGlnValGly (GYQVG; printed: GlyTyrGlnValGly)”, the “First-Order Deamidation Halftimes of GlyXxxGlnYyyGly” value was 8000 days.

On to “GlyMetGlnAspGly (GMQDG; printed: GlyMetGlnAspGly)”, for which the “First-Order Deamidation Halftimes of GlyXxxGlnYyyGly” value came out at 6200 days.

In the case of “GlyProGlnIleGly (GPQIG; printed: GlyProGlnIleGly)”, the “First-Order Deamidation Halftimes of GlyXxxGlnYyyGly” value was determined as 6000 days.

“GlyPheGlnSerGly (GFQSG; printed: GlyPheGlnSerGly)”: the “First-Order Deamidation Halftimes of GlyXxxGlnYyyGly” value amounted to 5900 days.

For the substance “GlyAspGlnIleGly (GDQIG; printed: GlyAspGlnIleGly)”, the “First-Order Deamidation Halftimes of GlyXxxGlnYyyGly” value is 6400 days.

For “GlyMetGlnGlyGly (GMQGG; printed: GlyMetGlnGlyGly)”, the “First-Order Deamidation Halftimes of GlyXxxGlnYyyGly” value is recorded as 600 days.

For “GlySerGlnAlaGly (GSQAG; printed: GlySerGlnAlaGly)”, the “First-Order Deamidation Halftimes of GlyXxxGlnYyyGly” value is recorded as 6400 days.

In the case of “GlyLeuGlnGluGly (GLQEG; printed: GlyLeuGlnGluGly)”, the “First-Order Deamidation Halftimes of GlyXxxGlnYyyGly” value was found to be 7400 days.

As for “GlyAspGlnLysGly (GDQKG; printed: GlyAspGlnLysGly)”, the “First-Order Deamidation Halftimes of GlyXxxGlnYyyGly” value stood at 4600 days.

With “GlyPheGlnLysGly (GFQKG; printed: GlyPheGlnLysGly)”, the “First-Order Deamidation Halftimes of GlyXxxGlnYyyGly” value is listed as 6200 days.

For “GlyLeuGlnCysGly (GLQCG; printed: GlyLeuGlnCysGly)”, the “First-Order Deamidation Halftimes of GlyXxxGlnYyyGly” value amounted to 2000 days.

Take “GlyHisGlnThrGly (GHQTG; printed: GlyHisGlnThrGly)”: the “First-Order Deamidation Halftimes of GlyXxxGlnYyyGly” value came out at 5500 days.

In the case of “GlyLeuGlnProGly (GLQPG; printed: GlyLeuGlnProGly)”, the “First-Order Deamidation Halftimes of GlyXxxGlnYyyGly” value is recorded as 10000 days.

With “GlyAspGlnPheGly (GDQFG; printed: GlyAspGlnPheGly)”, the “First-Order Deamidation Halftimes of GlyXxxGlnYyyGly” value was 8500 days.

Consider “GlyAlaGlnGlyGly (GAQGG; printed: GlyAlaGlnGlyGly)”, for which the “First-Order Deamidation Halftimes of GlyXxxGlnYyyGly” value was found to be 610 days.

With “GlyMetGlnMetGly (GMQMG; printed: GlyMetGlnMetGly)”, the “First-Order Deamidation Halftimes of GlyXxxGlnYyyGly” value is on record as 3500 days.

Take “GlyLeuGlnAspGly (GLQDG; printed: GlyLeuGlnAspGly)”: the “First-Order Deamidation Halftimes of GlyXxxGlnYyyGly” value is listed as 7800 days.

Turning to “GlyAlaGlnMetGly (GAQMG; printed: GlyAlaGlnMetGly)”, the “First-Order Deamidation Halftimes of GlyXxxGlnYyyGly” value turned out to be 4400 days.

As for “GlyGlyGlnGluGly (GGQEG; printed: GlyGlyGlnGluGly)”, the “First-Order Deamidation Halftimes of GlyXxxGlnYyyGly” value worked out at 7300 days.

On to “GlyLysGlnValGly (GKQVG; printed: GlyLysGlnValGly)”, for which the “First-Order Deamidation Halftimes of GlyXxxGlnYyyGly” value is given as 5700 days.

As for “GlySerGlnTyrGly (GSQYG; printed: GlySerGlnTyrGly)”, the “First-Order Deamidation Halftimes of GlyXxxGlnYyyGly” value was 13000 days.

Turning to “GlyGluGlnProGly (GEQPG; printed: GlyGluGlnProGly)”, the “First-Order Deamidation Halftimes of GlyXxxGlnYyyGly” value is given as 10000 days.
